tested on: Saccharomyces cerevisiae; assay: transcriptional activation domain activity (GFP:mCherry ratio, weighted mean of sorted bins, harmonized to initial dataset scale) (arbitrary fluorescence ratio units); higher = stronger transcriptional activation; settings: beta-estradiol 1 µM; induction time 4 h
Experimental: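 53-aa protein tiles (fungal proteins plus yeast TF control tiles) fused C-terminally to a DBD-estrogen-binding domain-mCherry synthetic TF, integrated in S. cerevisiae (URA3 locus) with a GFP reporter. Cells were induced with 1 uM beta-estradiol for 4 h at 30 C, FACS-sorted into 8 bins by GFP:mCherry ratio and barcodes sequenced. Activity is the read-weighted mean bin fluorescence (GFP:mCherry), averaged over barcodes (median 12); tiles under 50 reads were discarded. New active-learning values were harmonized by linear fit onto the scale of the initial (Hummel et al.) dataset. The assay saturates at low and high signal.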

| Sequence | transcriptional activation domain activity |
| --- | --- |
| EKKRLLREKNKKRKRGEEVSDDEEEQKEEAAKKAKSEKEDSKHGIWVGNLHFS | 50100 |
| VFVPIPGLRNRRVHILLPNLYLLHQITFFRFSRRRSTLVLLLVCVSIVFAMYA | 36500 |
| NNNYNNVSGKNNNNNNITNNSNNNHNNNNNDNNNNNNNNNNNNNNNNNSGNSS | 49500 |
| HSSAPASPASPSPNSAPTPPATTPPPPPSPAAPRRTHSPPTPGTRRPSTTTPS | 53500 |
| CQRQWADRVQMTLRQMYDLLLIEITRPRYSVFLTSGHSMEEMASVFRLIACIA | 44400 |
| MALEFLMDDIHLNKFLLLGYGVISKFLIVCHRYSKVVGETYYVIHTGIFYLLG | 56200 |
| GIPVKAYPPNGVYPFSGLSCYAMIVSFLHSELDMVYMTFRELYARYFHHLHTI | 70500 |
| MGNMGTCSFFFFFCWSSFFLCYFCVFPCVLSFQVEGLEAIFLPFTFFPFWFSL | 57300 |
| SDNGTENNGETKKRYDPKDPLRPRRKKARRACYACQRAHLTCGDERPCQRCIK | 16400 |
| ATHPDYIDPHNAMDYLSNDGGDSYNLCHFWSNFEIADMDFWRSDAYQAFFDFL | 150000 |
| GALRLAASQEGIKLGDDVKSNVKMVLGKDAQGGFAVSAEVTVSGNGVTKALVD | 31300 |
| GHSIPRLNFGDGYNLNNGRAYRGGTWASTLRYRKSNGLWYWIGCVNFWHTWIF | 75000 |
| MFCLRSWIPVLFFLLRTNASPVYLILSISATYFLNRPCVYCSLLLFILVVALF | 57600 |
| MADVSSARINIDRAKQGRGLGRVATAGCSRDRILLIRSSHSVWRAACHLWAVP | 60500 |
| PNIHSLHSLYTFRFLHIHSFHNLFFLPFFYFLYSLCFLHLPCFLSFLRFLHLL | 63900 |
| EVKLEEAEATGASVKRKSRKSKIETDIADGADNEATPSGSRRRGRPRKSQPDP | 59400 |
| FLWGGRHGFVGFCIPLILLFFMLLSCISFCISILHFFFVLSFLLNFFCEFFLR | 36100 |

| Sequence | transcriptional activation domain activity |
| --- | --- |
| ILENKGLNEDLSSHIYEKEAPKFDSDIDISRFGTNDAVIFNNDGWDTSLPIDF | 102000 |
| LGFLYDLIPFFFCCLPFLPFLAPPLKKHLALFQFHPLLHLPLLLPFFFLYFRP | 50200 |
| LKALQLGCYNYFLLGGSCVSGPVGLLAGIIRQPLVLFYHFFSVALYAIWLRVA | 81200 |
| MVFFLYISLLIFFFTATIAALPCMVWWILAVHCWLFIFLDPLAFFYYSFFPFF | 26300 |
| GRRHCNYVQGWLWLSLFSYVCVTYVLSIYISMSFFFWNIAVFLFYFIFVGLLG | 40500 |
| EDGNGHGTHCSGTIAGKKYGVAKKAHVYAVKVLRSNGSGSMSDVVKGVEFAAT | 42400 |
| KEKEVKAEVEEDGSEQEEGEGEEEEEGATRSSARKGKGRATAGGRKTRRGAAG | 19400 |
| RVEAQVRDRRVEAQVRDRRAEAQVRARDHRSKVQVRNRQSKAEAEAQVRSQAR | 33900 |
| FSYFYCFFFPLFTFFLFHIFVLLSIKQFLFLFLFVFLFLVLLFIVPPLFPVSV | 17300 |
| FMNTNEINNNNNNNNNNKNNINNINNNNSNNFSATSFNLGTLDEFVNNGDLED | 11800 |
| MESRARISTSVILYLCARLRSIAVITYMIVVRSLSTFVYLAQRFFILLWPIIW | 55600 |
| NLLDFRKILVNVVCILVVDVVLLMSMLIGLLRYSHRNSTGLWHLLYQQCIIWL | 45000 |
| VLHVLILHLPCCPSPNFLLAPDTTLPLSTLLWYEFSRTLFPVLLFYLPAFLIS | 72100 |
| YLINLLYQLLWLVPFSAPLSLRSTLAKVYEFGGVHSGSAICSVLWFILLTVFL | 64900 |
| QVLVLLLILLVFLVFQFLQMLSFLLKLPFVLKLEILLVLLVTKLWVFLFHLLL | 41500 |
| VYSYKKRMWHYFLFDLCYYVNIINLVYIWILPQSAWLFVACYCLSHGSVASAV | 58700 |
| KGLNGPKKEDGGDGESRKRGRPEEDEEERKEGGGGGRRARRRERLQGAAGGGS | 18600 |

Reference: the supplement of paper PMC12636428
